Results as given in paper PMC3428507 (Journal of molecular biology, 2012).
Read-outs that look alike come from different tables or passages of the source. Values belong to the binder of their own block, whether it stands above or below them.

B1: Pf1 PHD1/MBD (residues 48–241) (domain or fragment, human, UniProt Q96QT6 48-241, looked up)
chain: RRSGRATNHDSCDSCKEGGDLLCCDHCPAAFHLQCCNPPLSEEMLPPGEWMCHRCTVRRKKREQKKELGHVNGLVDKSGKRTTSPSSDTDLLDRSASKTELKAIAHARILERRASRPGTPTSSASTETPTSEQNDVDEDIIDVDEEPVAAEPDYVQPQLRRPFELLIAAAMERNPTQFQLPNELTCTTALPGSS
B2: MRG domain of MRG15 (residues 155–323) (domain or fragment)
chain: not shown

Columns and labels:
Assay in all cases: NMR titration
[1] = biological target: T1, full-length MRG15 (residues 1–323) (human, UniProt Q9UBU8-2 1-323)
[2] = biological target: B1
[3] = biological target: T1, full-length MRG15 (residues 1–323); remark: listed apart in the source

Binder: B1
binding result [1]: binds

Binder: B2
binding result [2]: binds

binding result [3]: binds
Binder: DYVQPQLRRPFELLIAAAMERNPTQFQLPNELTCTTALPGSS (domain or fragment, human, UniProt Q96QT6 200-241, looked up) [MRG-binding domain of Pf1 (residues 200–241)]
